Where a chain is given by its changes, count along the chain named. “And” between values parts separate entries of the source, which are not always exact repeats. Equal values may be shown once.
How the values were obtained:
Type in all cases: cell-based
[1] = target: T1, C3aR I102^3.32A (Homo sapiens, UniProt Q16581, I102A); assay: GloSensor-based cAMP assay, C3aR mutant I102A; settings: for cAMP response (% Forskolin): I1023.32A, single replicates
T1 construct: expressed in transfected cells; host or cells: HEK293T
T1 sequence (Q16581 1-482 I102A): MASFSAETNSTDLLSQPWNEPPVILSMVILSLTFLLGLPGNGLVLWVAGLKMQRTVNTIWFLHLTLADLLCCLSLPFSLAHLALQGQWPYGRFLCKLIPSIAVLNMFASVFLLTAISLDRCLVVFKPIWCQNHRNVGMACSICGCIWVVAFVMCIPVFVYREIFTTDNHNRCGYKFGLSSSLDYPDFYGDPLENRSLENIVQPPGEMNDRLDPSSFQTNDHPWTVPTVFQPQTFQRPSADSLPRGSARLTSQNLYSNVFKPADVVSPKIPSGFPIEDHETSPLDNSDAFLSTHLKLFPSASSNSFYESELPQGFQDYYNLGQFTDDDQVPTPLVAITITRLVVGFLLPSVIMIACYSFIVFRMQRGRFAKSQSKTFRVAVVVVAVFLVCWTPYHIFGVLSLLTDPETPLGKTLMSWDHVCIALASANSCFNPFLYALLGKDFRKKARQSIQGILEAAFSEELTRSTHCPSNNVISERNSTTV
Experimental: (§1) HEK293T cells were seeded on 6-well plates (NEST) and transfected with pGlosensor™-22F plasmids (Promega) and pcDNA3.1 plasmids encoding C3aR or its mutants an with N-terminal FLAG tag. After 48 h, cells were detached with Accutase solution (Sigma-Aldrich) and washed with PBS, and resuspended in assay buffer (CO2-independent medium with 0.5 mg mL^−1D-luciferin). 100,000–200,000 cells were seeded on 96-well white bottom plates (SPL) and incubated at 37 °C for 45 min followed by 45 min incubation at room temperature. After 90 min of incubation, basal luminescence signals were recorded. In total, 25 μl of test ligand with various concentrations and 1 μM Forskolin (Sigma-Aldrich) were treated to the cells and luminescence signals were measured by Tristar 2 LB 942 multimode reader (Berthold). […] Relative luminescence unit (%) was calculated with the signal of wells treated with vehicle as 0% and the signal of wells treated with 1 μM Forskolin as 100% (DiRaddo et al, [2014]). Nonlinear regression was performed using a three-parameter logistic equation.

[2] = target: T2, C3aR L30^1.39A (Homo sapiens, UniProt Q16581, L30A); assay: GloSensor-based cAMP assay, C3aR mutant L30A; settings: for cAMP response (% Forskolin): L301.39A, single replicates
T2 construct: expressed in transfected cells; host or cells: HEK293T
T2 sequence (Q16581 1-482 L30A): T1 sequence (Q16581 1-482 I102A) with L30A, A102I
Experimental: as §1

[3] = target: T3, C3aR Y393^6.51A (Homo sapiens, UniProt Q16581, Y393A); assay: GloSensor-based cAMP assay, C3aR mutant Y393A; settings: for cAMP response (% Forskolin): Y3936.51A, single replicates
T3 construct: expressed in transfected cells; host or cells: HEK293T
T3 sequence (Q16581 1-482 Y393A): T1 sequence (Q16581 1-482 I102A) with A102I, Y393A
Experimental: as §1

[4] = Dunnett's multiple comparisons test, WT minus mutant

## C3a: anaphylatoxin C3a, natural peptide ligand of C3aR (a 77-amino acid peptide), Sigma-Aldrich
[1]; [4]
  Mean Diff. of pIC50, WT vs. I102A: 0.080
[1]; I102^3.32A relative to WT C3aR
  ΔpIC50 ± SE of Diff.: -0.08 ± 0.06
[1]; I102^3.32A, dose-response plot, read-out: IC50
  IC50: 3.33 nM
[1]; I102^3.32A, individual replicates
  pIC50 (Replicate): 8.61 and 8.63 and 8.49
[1]; I102^3.32A, mean of independent experiments
  pIC50 ± SEM (Mean): 8.47
[1]; Log[C3a (M)] -7
  cAMP response (% Forskolin): 12.51 % Forskolin and 13.87 % Forskolin and 13.89 % Forskolin and 16.73 % Forskolin
[1]; Log[C3a (M)] -8
  cAMP response (% Forskolin): 18.09 % Forskolin and 20.55 % Forskolin and 21.20 % Forskolin and 43.71 % Forskolin
[1]; Log[C3a (M)] -9
  cAMP response (% Forskolin): 79.37 % Forskolin and 75.76 % Forskolin and 87.66 % Forskolin and 96.25 % Forskolin
[1]; Log[C3a (M)] -10
  cAMP response (% Forskolin): 100.22 % Forskolin and 97.06 % Forskolin and 101.20 % Forskolin and 92.74 % Forskolin
[1]; Log[C3a (M)] -11
  cAMP response (% Forskolin): 101.22 % Forskolin and 97.60 % Forskolin and 96.34 % Forskolin and 96.47 % Forskolin
[1]; Log[C3a (M)] -12
  cAMP response (% Forskolin): 100.09 % Forskolin and 99.44 % Forskolin and 103.06 % Forskolin and 100.29 % Forskolin
[2]; [4]
  Mean Diff. of pIC50, WT vs. L30A: -0.019
[2]; L30^1.39A relative to WT C3aR
  ΔpIC50 ± SE of Diff.: 0.019 ± 0.009
[2]; L30^1.39A, dose-response plot, read-out: IC50
  IC50: 2.77 nM
[2]; L30^1.39A, individual replicates
  pIC50 (Replicate): 8.56 and 8.70 and 8.57 and 8.44
[2]; L30^1.39A, mean of independent experiments
  pIC50 ± SEM (Mean): 8.57 ± 0.05 and 8.57
[2]; Log[C3a (M)] -7
  cAMP response (% Forskolin): 9.08 % Forskolin and 11.83 % Forskolin and 11.69 % Forskolin and 11.40 % Forskolin
[2]; Log[C3a (M)] -8
  cAMP response (% Forskolin): 10.54 % Forskolin and 13.47 % Forskolin and 12.71 % Forskolin and 14.92 % Forskolin
[2]; Log[C3a (M)] -9
  cAMP response (% Forskolin): 79.63 % Forskolin and 73.91 % Forskolin and 80.93 % Forskolin and 94.77 % Forskolin
[2]; Log[C3a (M)] -10
  cAMP response (% Forskolin): 98.57 % Forskolin and 99.49 % Forskolin and 94.04 % Forskolin and 99.72 % Forskolin
[2]; Log[C3a (M)] -11
  cAMP response (% Forskolin): 93.76 % Forskolin and 102.28 % Forskolin and 98.92 % Forskolin (2×)
[2]; Log[C3a (M)] -12
  cAMP response (% Forskolin): 93.05 % Forskolin and 98.36 % Forskolin and 95.43 % Forskolin and 98.17 % Forskolin
[3]; Y393^6.51A relative to WT C3aR
  ΔpIC50 ± SE of Diff.: -1.34 ± 0.2
[3]; Y393^6.51A, dose-response plot, read-out: IC50
  IC50: 35.3 nM
[3]; Y393^6.51A, mean of independent experiments
  pIC50 ± SEM (Mean): 7.26
[3]; Log[C3a (M)] -7
  cAMP response (% Forskolin): 22.11 % Forskolin and 35.95 % Forskolin and 17.03 % Forskolin and 39.16 % Forskolin and 16.00 % Forskolin and 10.74 % Forskolin
[3]; Log[C3a (M)] -8
  cAMP response (% Forskolin): 77.53 % Forskolin and 92.37 % Forskolin and 48.78 % Forskolin and 85.94 % Forskolin and 83.42 % Forskolin and 59.04 % Forskolin
[3]; Log[C3a (M)] -9
  cAMP response (% Forskolin): 100.98 % Forskolin and 105.20 % Forskolin and 100.01 % Forskolin and 92.90 % Forskolin and 94.02 % Forskolin and 86.75 % Forskolin
[3]; Log[C3a (M)] -10
  cAMP response (% Forskolin): 91.84 % Forskolin and 102.66 % Forskolin and 96.87 % Forskolin and 100.10 % Forskolin and 89.56 % Forskolin and 88.42 % Forskolin
[3]; Log[C3a (M)] -11
  cAMP response (% Forskolin): 102.78 % Forskolin and 104.06 % Forskolin and 100.84 % Forskolin and 95.25 % Forskolin and 103.11 % Forskolin and 88.56 % Forskolin
[3]; Log[C3a (M)] -12
  cAMP response (% Forskolin): 99.54 % Forskolin and 99.47 % Forskolin and 94.11 % Forskolin and 90.18 % Forskolin and 94.48 % Forskolin and 86.37 % Forskolin

— PMC12084609, “Structural insights into small-molecule agonist recognition and activation of complement receptor C3aR” (The EMBO Journal, 2025)
